# Measurements published in US20260098059A1 (ENDOMET BIOSCIENCES, published 2026).
# Several values for one entry are separate records, joined by “and”; a condition that tells them apart may be missing. Equal entries are not always repeated. Bridges are numbered along the chain shown (N, C = ends). Where no end group is shown, it is not given here. [ ]: non-standard residue; d: D form. The star is where a group is joined. Palmitoyl = CCCCCCCCCCCCCCCC(=O)*; Chg = N[C@H](C(=O)O)C1CCCCC1; NMeA = CN[C@@H](C)C(=O)O
# T1: β-catenin (UniProt P35222 134-665, limits assumed, biotinylated in the SPR and plate assays)
# T1 construct: also called beta catenin; biotinylated β-catenin
# T1 sequence (looked up): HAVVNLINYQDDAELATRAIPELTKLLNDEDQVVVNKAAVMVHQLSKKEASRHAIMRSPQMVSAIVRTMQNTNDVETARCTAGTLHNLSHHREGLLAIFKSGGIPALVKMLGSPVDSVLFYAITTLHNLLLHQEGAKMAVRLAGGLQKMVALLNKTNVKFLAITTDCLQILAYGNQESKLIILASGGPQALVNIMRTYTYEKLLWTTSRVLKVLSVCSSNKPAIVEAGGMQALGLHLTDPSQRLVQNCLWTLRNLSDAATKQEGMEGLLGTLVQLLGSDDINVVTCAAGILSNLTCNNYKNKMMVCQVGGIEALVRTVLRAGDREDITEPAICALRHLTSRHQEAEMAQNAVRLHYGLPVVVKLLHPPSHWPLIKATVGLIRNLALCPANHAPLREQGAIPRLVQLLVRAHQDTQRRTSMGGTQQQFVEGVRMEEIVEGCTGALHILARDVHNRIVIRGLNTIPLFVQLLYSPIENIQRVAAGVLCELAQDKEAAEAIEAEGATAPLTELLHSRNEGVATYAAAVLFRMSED
# B1: SEQ ID NO: 460 (peptide)
# peptide: Ac-W[NMeA]QSILDKH[Chg]QDVW-NH2
# modifications: lactam 8-12; not fully specified; printed as Ac-NH-W-NMeA-QSILDK*H-Chg-QD*VW-NH2
# B2: SEQ ID NO: 470 (peptide)
# peptide: Ac-W[NMeA]QSILDEH[Chg]QKVWG-NH2
# modifications: lactam 8-12; not fully specified; printed as Ac-NH-W-NMeA-QSILDE*H-Chg-QK*VWG-NH2
# B3: SEQ ID NO: 437 (peptide)
# peptide: WAQSILDEHVQKVWG
# HELM: PEPTIDE1{[ac].W.[meA].Q.S.I.L.D.E.H.V.Q.K.V.W.G.[am]}$PEPTIDE1,PEPTIDE1,9:R3-13:R3$$$V2.0
# SMILES: CC[C@H](C)[C@H](NC(=O)[C@H](CO)NC(=O)[C@H](CCC(N)=O)NC(=O)[C@H](C)N(C)C(=O)[C@H](Cc1c[nH]c2ccccc12)NC(C)=O)C(=O)N[C@@H](CC(C)C)C(=O)N[C@@H](CC(=O)O)C(=O)N[C@H]1CCC(=O)NCCCC[C@@H](C(=O)N[C@H](C(=O)N[C@@H](Cc2c[nH]c3ccccc23)C(=O)NCC(N)=O)C(C)C)NC(=O)[C@H](CCC(N)=O)NC(=O)[C@H](C(C)C)NC(=O)[C@H](Cc2c[nH]cn2)NC1=O
# B4: SEQ ID NO: 415 (peptide)
# peptide: WAQKILDEHGSRVWG
# HELM: PEPTIDE1{W.[meA].Q.K.I.L.D.E.H.[O=C([C@@H](N[*:1])C1CCCCC1)[*:2]].S.R.V.W.G.[am]}$PEPTIDE1,PEPTIDE1,4:R3-8:R3$$$V2.0
# SMILES: CC[C@H](C)[C@@H]1NC(=O)[C@@H](NC(=O)[C@H](CCC(N)=O)NC(=O)[C@H](C)N(C)C(=O)[C@@H](N)Cc2c[nH]c3ccccc23)CCCCNC(=O)CC[C@@H](C(=O)N[C@@H](Cc2c[nH]cn2)C(=O)N[C@H](C(=O)N[C@@H](CO)C(=O)N[C@@H](CCCNC(=N)N)C(=O)N[C@H](C(=O)N[C@@H](Cc2c[nH]c3ccccc23)C(=O)NCC(N)=O)C(C)C)C2CCCCC2)NC(=O)[C@H](CC(=O)O)NC(=O)[C@H](CC(C)C)NC1=O
# B5: SEQ ID NO: 421 (peptide)
# peptide: WAQKGLDEHVQRVWG
# HELM: PEPTIDE1{[ac].W.[meA].Q.K.[O=C([C@@H](N[*:1])C1CCCCC1)[*:2]].L.D.E.H.V.Q.R.V.W.G.[am]}$PEPTIDE1,PEPTIDE1,5:R3-9:R3$$$V2.0
# SMILES: CC(=O)N[C@@H](Cc1c[nH]c2ccccc12)C(=O)N(C)[C@@H](C)C(=O)N[C@@H](CCC(N)=O)C(=O)N[C@H]1CCCCNC(=O)CC[C@@H](C(=O)N[C@@H](Cc2c[nH]cn2)C(=O)N[C@H](C(=O)N[C@@H](CCC(N)=O)C(=O)N[C@@H](CCCNC(=N)N)C(=O)N[C@H](C(=O)N[C@@H](Cc2c[nH]c3ccccc23)C(=O)NCC(N)=O)C(C)C)C(C)C)NC(=O)[C@H](CC(=O)O)NC(=O)[C@H](CC(C)C)NC(=O)[C@H](C2CCCCC2)NC1=O
# B6: SEQ ID NO: 416 (peptide)
# peptide: WAQKILDEHGSRVWG
# HELM: PEPTIDE1{[ac].W.[meA].Q.K.I.L.D.E.H.[O=C([C@@H](N[*:1])C1CCCCC1)[*:2]].S.R.V.W.G.[am]}$PEPTIDE1,PEPTIDE1,5:R3-9:R3$$$V2.0
# SMILES: CC[C@H](C)[C@@H]1NC(=O)[C@@H](NC(=O)[C@H](CCC(N)=O)NC(=O)[C@H](C)N(C)C(=O)[C@H](Cc2c[nH]c3ccccc23)NC(C)=O)CCCCNC(=O)CC[C@@H](C(=O)N[C@@H](Cc2c[nH]cn2)C(=O)N[C@H](C(=O)N[C@@H](CO)C(=O)N[C@@H](CCCNC(=N)N)C(=O)N[C@H](C(=O)N[C@@H](Cc2c[nH]c3ccccc23)C(=O)NCC(N)=O)C(C)C)C2CCCCC2)NC(=O)[C@H](CC(=O)O)NC(=O)[C@H](CC(C)C)NC1=O
# B7: SEQ ID NO: 420 (peptide)
# peptide: WAQKGLDEHVQRVWG
# HELM: PEPTIDE1{W.[meA].Q.K.[O=C([C@@H](N[*:1])C1CCCCC1)[*:2]].L.D.E.H.V.Q.R.V.W.G.[am]}$PEPTIDE1,PEPTIDE1,4:R3-8:R3$$$V2.0
# SMILES: CC(C)C[C@@H]1NC(=O)[C@H](C2CCCCC2)NC(=O)[C@@H](NC(=O)[C@H](CCC(N)=O)NC(=O)[C@H](C)N(C)C(=O)[C@@H](N)Cc2c[nH]c3ccccc23)CCCCNC(=O)CC[C@@H](C(=O)N[C@@H](Cc2c[nH]cn2)C(=O)N[C@H](C(=O)N[C@@H](CCC(N)=O)C(=O)N[C@@H](CCCNC(=N)N)C(=O)N[C@H](C(=O)N[C@@H](Cc2c[nH]c3ccccc23)C(=O)NCC(N)=O)C(C)C)C(C)C)NC(=O)[C@H](CC(=O)O)NC1=O
# B8: SEQ ID NO: 422 (peptide)
# peptide: W[NMeA]QK[Chg]LDEHVQRVWG-NH2
# modifications: lactam 4-8; not fully specified (N-terminus); printed as H17C8C(O)NH-W-NMeA-QK*-Chg-LDE*HVQRVWG-NH2
# B9: SEQ ID NO: 240 (peptide)
# peptide: MWILISFW
# HELM: PEPTIDE1{[ac].M.W.I.L.I.S.F.W.[O=C(O)CCCN[*:1]]}$$$$V2.0
# SMILES: CC[C@H](C)[C@H](NC(=O)[C@H](CC(C)C)NC(=O)[C@@H](NC(=O)[C@H](Cc1c[nH]c2ccccc12)NC(=O)[C@H](CCSC)NC(C)=O)[C@@H](C)CC)C(=O)N[C@@H](CO)C(=O)N[C@@H](Cc1ccccc1)C(=O)N[C@@H](Cc1c[nH]c2ccccc12)C(=O)NCCCC(=O)O
# B10: SEQ ID NO: 243 (peptide)
# peptide: KWFLIXAWD
# HELM: PEPTIDE1{[ac].K.W.F.L.I.[Abu].A.W.D}$PEPTIDE1,PEPTIDE1,2:R3-10:R3$$$V2.0
# SMILES: CC[C@@H]1NC(=O)[C@H]([C@@H](C)CC)NC(=O)[C@H](CC(C)C)NC(=O)[C@H](Cc2ccccc2)NC(=O)[C@H](Cc2c[nH]c3ccccc23)NC(=O)[C@@H](NC(C)=O)CCCCNC(=O)C[C@@H](C(=O)O)NC(=O)[C@H](Cc2c[nH]c3ccccc23)NC(=O)[C@H](C)NC1=O
# B11: SEQ ID NO: 489 (peptide)
# peptide: PQKILDEH[Chg]QRVMK-NH2
# modifications: lactam 3-7; not fully specified (N-terminus); printed as H23C11C(O)-PQK*ILDE*H-Chg-QRVMK-NH2
# Target: T1, β-catenin
# Experiment: competitive FP
# Excerpt: Fluorescence polarization (FP) is another method used to analyze protein-ligand interactions. This methodology measures the change in fluorescence light emitted by a labelled compound free vs. conjugated to another compound in solution. Upon binding of the fluorescent molecule to a complex, polarization increases because of limited rotation of the fluorescent tracer. Competitive FP is often utilized in drug screens as it is formatted for high throughput screens in a plate format. This immunoassay is performed by introducing a non-conjugated drug to compete for binding to the labelled competitor-ligand complex, leading to a reduction in polarization. […] Exemplary methodology is described in Example 13. Data were analyzed and plotted in Microsoft Excel (Microsoft, Redmond, WA).
# Varying concentrations of β-catenin inhibitor candidate (SEQ ID NO: 404) were then added in a series of serial dilutions from 10 nM to 30 uM of inhibitor in different wells of the plate. The fluorescence polarization was read by Infinite M1000 (Tecan, Baldwin Park CA) at excitation wavelength of 470 nm and measured at emission wavelength of 520 nm. […] The experiments were performed three times and data were analyzed and plotted in Microsoft Excel (Microsoft, Redmond, WA).
row,Kd,Binder
1,> 400 nM and ≤ 1000 nM,Ac-WILIAFWG-OH [SEQ ID NO: 263]
2,≤ 400 nM,B1
3,≤ 400 nM,WPQSILDKHGQDVW (not fully specified; Ac-NH-WPQSILDK*H-Chg-QD*VW-NH2) [SEQ ID NO: 462]
4,≤ 400 nM,B2
5,≤ 400 nM,B3
6,≤ 400 nM,B4
7,≤ 400 nM,B5
8,≤ 400 nM,B6
9,> 400 nM and ≤ 1000 nM,B7
10,> 400 nM and ≤ 1000 nM,B8
11,≤ 400 nM,B9
12,> 10000 nM and ≤ 30000 nM,B10
13,> 10000 nM and ≤ 30000 nM,H-MWFLISFWA-OH [SEQ ID NO: 7]
14,> 400 nM and ≤ 1000 nM,H-MWFLASFWG-OH [SEQ ID NO: 11]
15,≤ 400 nM,KWFLICAWD (not fully specified; cyclo-H2N-K(GABA*)WFLICAWD*-COOH) [SEQ ID NO: 247]
16,≤ 400 nM,Ac-MWFLIAFWG-OH [SEQ ID NO: 274]
17,> 400 nM and ≤ 1000 nM,KWFLICAWD (not fully specified; cyclo-H2N-K(Ahx*)WFLICAWD*-COOH) [SEQ ID NO: 249]
18,> 400 nM and ≤ 1000 nM,H-MWALISFWG-OH [SEQ ID NO: 13]

# Target: T1, β-catenin
# Experiment: cell-based or functional assay
row,Wnt Reporter EC50,Binder
1,> 7.5 µM and ≤ 15 µM,H-MSRMWILISFWG-OH [SEQ ID NO: 51]
2,≤ 7.5 µM,H-MWFLISFWRG-OH [SEQ ID NO: 49]
3,≤ 7.5 µM,Ac-PQKILDEH[Chg]QRVMK-NH2 (lactam 3-7) [SEQ ID NO: 488]
4,> 15 µM and ≤ 22.5 µM,B11
5,≤ 7.5 µM,H-MSRMWFLICFWG-OH [SEQ ID NO: 46]
6,≤ 7.5 µM,Palmitoyl-PQKILDEH[Chg]QRVMK-NH2 (bridge 3-7; also: K3* and E7* marked (linkage not given here)) [SEQ ID NO: 490]
7,> 15 µM and ≤ 22.5 µM,H-MSRMWFLISFWTG-OH [SEQ ID NO: 44]
